# From paper PMC8214142 (The Biochemical journal, 2021)
# * marks the point of attachment. Biotin = O=C1N[C@H]2[C@H](CS[C@H]2CCCCC(=O)*)N1
# B1: Biotinyl-(GGS)3MLL4Win-NH2 (peptide)
# peptide: Biotin-GGSGGSGGSLNPHGAARAEVYLS-NH2
# SMILES: CC(C)C[C@H](NC(=O)[C@H](Cc1ccc(O)cc1)NC(=O)[C@@H](NC(=O)[C@H](CCC(=O)O)NC(=O)[C@H](C)NC(=O)[C@H](CCCNC(=N)N)NC(=O)[C@H](C)NC(=O)[C@H](C)NC(=O)CNC(=O)[C@H](Cc1c[nH]cn1)NC(=O)[C@@H]1CCCN1C(=O)[C@H](CC(N)=O)NC(=O)[C@H](CC(C)C)NC(=O)[C@H](CO)NC(=O)CNC(=O)CNC(=O)[C@H](CO)NC(=O)CNC(=O)CNC(=O)[C@H](CO)NC(=O)CNC(=O)CNC(=O)CCCC[C@@H]1SC[C@@H]2NC(=O)N[C@@H]21)C(C)C)C(=O)N[C@@H](CO)C(N)=O
# B2: Biotinyl-(GGS)3SETd1AWin-NH2 (peptide)
# peptide: Biotin-GGSGGSGGSEHQTGSARSEGYYP-NH2
# SMILES: C[C@H](NC(=O)[C@H](CO)NC(=O)CNC(=O)[C@@H](NC(=O)[C@H](CCC(N)=O)NC(=O)[C@H](Cc1c[nH]cn1)NC(=O)[C@H](CCC(=O)O)NC(=O)[C@H](CO)NC(=O)CNC(=O)CNC(=O)[C@H](CO)NC(=O)CNC(=O)CNC(=O)[C@H](CO)NC(=O)CNC(=O)CNC(=O)CCCC[C@@H]1SC[C@@H]2NC(=O)N[C@@H]21)[C@@H](C)O)C(=O)N[C@@H](CCCNC(=N)N)C(=O)N[C@@H](CO)C(=O)N[C@@H](CCC(=O)O)C(=O)NCC(=O)N[C@@H](Cc1ccc(O)cc1)C(=O)N[C@@H](Cc1ccc(O)cc1)C(=O)N1CCC[C@H]1C(N)=O
# B3: Biotinyl-(GGS)3SETd1BWin-NH2 (peptide)
# peptide: Biotin-GGSGGSGGSEHVTGCARSEGFYT-NH2
# SMILES: CC(C)[C@H](NC(=O)[C@H](Cc1c[nH]cn1)NC(=O)[C@H](CCC(=O)O)NC(=O)[C@H](CO)NC(=O)CNC(=O)CNC(=O)[C@H](CO)NC(=O)CNC(=O)CNC(=O)[C@H](CO)NC(=O)CNC(=O)CNC(=O)CCCC[C@@H]1SC[C@@H]2NC(=O)N[C@@H]21)C(=O)N[C@H](C(=O)NCC(=O)N[C@@H](CS)C(=O)N[C@@H](C)C(=O)N[C@@H](CCCNC(=N)N)C(=O)N[C@@H](CO)C(=O)N[C@@H](CCC(=O)O)C(=O)NCC(=O)N[C@@H](Cc1ccccc1)C(=O)N[C@@H](Cc1ccc(O)cc1)C(=O)N[C@H](C(N)=O)[C@@H](C)O)[C@@H](C)O
# B4: Biotinyl-(GGS)3MLL2Win-NH2 (peptide)
# peptide: Biotin-GGSGGSGGSINPTGCARSEPKIL-NH2
# SMILES: CC[C@H](C)[C@H](NC(=O)[C@H](CCCCN)NC(=O)[C@@H]1CCCN1C(=O)[C@H](CCC(=O)O)NC(=O)[C@H](CO)NC(=O)[C@H](CCCNC(=N)N)NC(=O)[C@H](C)NC(=O)[C@H](CS)NC(=O)CNC(=O)[C@@H](NC(=O)[C@@H]1CCCN1C(=O)[C@H](CC(N)=O)NC(=O)[C@@H](NC(=O)[C@H](CO)NC(=O)CNC(=O)CNC(=O)[C@H](CO)NC(=O)CNC(=O)CNC(=O)[C@H](CO)NC(=O)CNC(=O)CNC(=O)CCCC[C@@H]1SC[C@@H]2NC(=O)N[C@@H]21)[C@@H](C)CC)[C@@H](C)O)C(=O)N[C@@H](CC(C)C)C(N)=O
# B5: Biotinyl-(GGS)3MLL3Win-NH2 (peptide)
# peptide: Biotin-GGSGGSGGSVNPTGCARSEPKMS-NH2
# SMILES: CSCC[C@H](NC(=O)[C@H](CCCCN)NC(=O)[C@@H]1CCCN1C(=O)[C@H](CCC(=O)O)NC(=O)[C@H](CO)NC(=O)[C@H](CCCNC(=N)N)NC(=O)[C@H](C)NC(=O)[C@H](CS)NC(=O)CNC(=O)[C@@H](NC(=O)[C@@H]1CCCN1C(=O)[C@H](CC(N)=O)NC(=O)[C@@H](NC(=O)[C@H](CO)NC(=O)CNC(=O)CNC(=O)[C@H](CO)NC(=O)CNC(=O)CNC(=O)[C@H](CO)NC(=O)CNC(=O)CNC(=O)CCCC[C@@H]1SC[C@@H]2NC(=O)N[C@@H]21)C(C)C)[C@@H](C)O)C(=O)N[C@@H](CO)C(N)=O
# Biological target: T1, WD40 repeat protein 5 (WDR5), human (human, UniProt P61964 1-334)
# Test: SPR
Binder,koff [s⁻¹],kon [M⁻¹ s⁻¹]
{sulforhodamine B}-GGSGGSGGSINPTGCARSEPKIL-NH2 [Sulforhodamine B-(GGS)3MLL2Win-NH2],0.012,370000
{sulforhodamine B}-GGSGGSGGSVNPTGCARSEPKMS-NH2 [Sulforhodamine B-(GGS)3MLL3Win-NH2],0.009,490000
{sulforhodamine B}-GGSGGSGGSLNPHGAARAEVYLS-NH2 [Sulforhodamine B-(GGS)3MLL4Win-NH2],0.041,210000
{sulforhodamine B}-GGSGGSGGSEHQTGSARSEGYYP-NH2 [Sulforhodamine B-(GGS)3SETd1AWin-NH2],0.11,310000
{sulforhodamine B}-GGSGGSGGSEHVTGCARSEGFYT-NH2 [Sulforhodamine B-(GGS)3SETd1BWin-NH2],0.024,340000

# Biological target: T1, WD40 repeat protein 5 (WDR5), human
# Test: BLI
Binder,Kd [nM],koff [s⁻¹],kon [M⁻¹ s⁻¹]
B1,1700,0.039,23000
B2,620,0.051,82000
B3,250,0.017,71000
B4,170,0.0077,44000
B5,100,0.0053,54000
